Ends that are not written are not given here.
B1: OsPN22823 aa 25-106 (other)
chain: SSSGKKVPLFSLFRYADRLDVLLMVVGTVGALGNGISQPLMTVLFGNVINSFGANTSGSVLRSVTKVKVSCWTMAGERQSAR
notes: prey, AD fusion; also called Novel Protein PN22823, Similar to ABC Transporter Proteins
B2: OsPN29041 aa 5-108 (other)
chain: VQIRRALRALVDDHTDGLMDFEDTEVRSSEETDALEEARLAIEQVVIPKGESVQLLPRPPSIIASQVDLVESFKLKWESIGQEPNACLRILPQFVGVEEGGKSV
notes: prey, AD fusion; also called Novel Protein PN29041, Fragment, Similar to A. thaliana Putative ATPase
B3: OsPN22020 aa 76-170 (other)
chain: ANATDGVKPLVGSARLPLRDVLADTGIGARASRSLRLKRPSGRPHGRLEVRVAVREPKRYYDPSPAYPAPYHQQTNRDPYAYGNTTTGGYGYAYG
notes: prey, AD fusion; also called Novel Protein PN22020, Fragment, Similar to A. thaliana Putative Protein
B4: OsORF020300-2233.2 aa 118-388 (other)
chain: SQDHLKEFISICEALELISEDELELSRQKQPDTMANRRAQKAARFKRQKAAETKLLEIKERKERRRRSLRAAALSAPIEAGEEDAFEDDGEEEREAWLATISLALCKAFDLLDMLKKEEEMLLAVKERQAKDGNAFAREMLDERTKKAEAWHHNAANRAPYSKPADPITCATFAQDVIEGRASVSQAHEHKHQPLIFGPASLVGGGLTSERERMAAQVFQPSYRLPTMSIEEAGLREMKMMEKWQERTAKMIQESNSAWHKDGSRSAQEDE
notes: prey, AD fusion; also called PN21639
B5: OsAAK63900 aa 122-224 (other)
chain: AAVAGKTHYRSALCASVTICGPIKKKIIDHFHKKPVPPKPEPKPEPPKPKPEPEHPFLDHIHKKEKHFFDHFHKKPVPPKPEPKPEPKPQPAPEYHNPSPPAN
notes: prey, AD fusion; also called PN23266; O. sativa Putative Proline-Rich Protein AAK63900
B6: OsPN26645 aa 24-164 (other)
chain: PLPEACPVPTAAEEILGPGGTCTTLDRRGDPVGVIEGDEVTLAKAITLLHMNKDDYIAVLFYASWCPFSQECKPNFEILASLFPSIRHFAFEESSIRPSIISRYGIHGFPTLFLLNSTMRVRYHGPRTVKSLAAFYRDVSG
notes: prey, AD fusion; also called Novel Protein PN26645, Putative Protein Disulfide Isomerase-Related Protein Precursor
B7: OsPN23268 aa 12-200 (other)
chain: SEEEAEATLRLLLEEENEARIAAFLVLLRAKGETYEEIVGLAKAMIGCCVRVDGLDDAVDIVGTGGDGADTVNISTGSTILAAAAGAKVAKQGSRASSSACGSADGIKRCVNEVGVGFMMSANYHPAMKIVKPVRKKLKIKTVFNILGPLLNPARVPYAVIGVYHENIVTKMAKAAQKFGMKRALVVHS
notes: prey, AD fusion; also called Novel Protein 23268, Similar to Phosphoribosylanthranilate Transferase, Chloroplast Precursor, Fragment
B8: OsORF020300-2233.2 aa 93-387 (other)
chain: LLVPYYLGEMTERVAQEDRIPVLKASQDHLKEFISICEALELISEDELELSRQKQPDTMANRRAQKAARFKRQKAAETKLLEIKERKERRRRSLRAAALSAPIEAGEEDAFEDDGEEEREAWLATISLALCKAFDLLDMLKKEEEMLLAVKERQAKDGNAFAREMLDERTKKAEAWHHNAANRAPYSKPADPITCATFAQDVIEGRASVSQAHEHKHQPLIFGPASLVGGGLTSERERMAAQVFQPSYRLPTMSIEEAGLREMKMMEKWQERTAKMIQESNSAWHKDGSRSAQED
notes: prey, AD fusion; also called PN21639; Hypothetical Protein ORF020300-2233.2, Putative PP2A Regulatory Subunit, Similar to OsCAA90866
B9: OsPN30852 aa 45-86 (other)
chain: RFEATTKSKLASLNEKLDILERKLEVLEVQVSSATTNPSVFN
modifications: not fully specified
notes: prey, AD fusion; also called Novel Protein PN30852
B10: OsPN26539 aa 194-346 (other)
chain: TEIIGLKGRIDKKNAYLQELEDQFVGLQNLAQRNEQLYGSGNAPSGGVALPFILVQTRPHATVEVEISEDMQLVHFDFNSTPFELHDDSFVLKALGFSGKEPDDTQAWVGNGGECSTTPIYHQSPQVARPNGVRLPTSPPIPGILKGRVKHEH
notes: prey, AD fusion
B11: OsPN26539 aa 66-346 (other)
chain: DDAPSSQPATSKKKKRGPGTRATGPDKGGRGLRQFSMKVCEKVESKGRTTYNEVADELVAEFADPNNNFASPDPDNPNTPQFDEKNIRRRVYDALNVLMAMDIISKDKKEIQWKGLPRTSMSDVEELKTEIIGLKGRIDKKNAYLQELEDQFVGLQNLAQRNEQLYGSGNAPSGGVALPFILVQTRPHATVEVEISEDMQLVHFDFNSTPFELHDDSFVLKALGFSGKEPDDTQAWVGNGGECSTTPIYHQSPQVARPNGVRLPTSPPIPGILKGRVKHEH
notes: prey, AD fusion; also called Novel Protein PN26539, Probable DP
B12: OsPN26539 aa 82-253 (other)
chain: GPGTRATGPDKGGRGLRQFSMKVCEKVESKGRTTYNEVADELVAEFADPNNNFASPDPDNPNTPQFDEKNIRRRVYDALNVLMAMDIISKDKKEIQWKGLPRTSMSDVEELKTEIIGLKGRIDKKNAYLQELEDQFVGLQNLAQRNEQLYGSGNAPSGGVALPFILVQTRPH
notes: prey, AD fusion
B13: OsPN29957 aa 51-288 (other)
chain: PRVLALTVKQSTKGEAAKAFLRVLKYSSGAVLEPAKLYKLKHLTKVEVISNDPSGCTFVLGFDNLRSQSVAPPQWTMRNIDDRNRLLFSILTMCKEILSYLPKVVGIDFVELALWAKENTVTLDNQSSTQDGQEKSVTTQTERKVTVTVENDLGSQAKDEEEDMEALLDTYVMGIGEADAFSERLKQELVALEAANVYQLLQSEPLIDEVLQGLDAASATVDDMDEWLRIFNMKLRHM
notes: prey, AD fusion; also called Novel Protein PN29957, Fragment, unknown
B14: OsPN23484 aa 111-194 (other)
chain: GREDREREVQEELASLSDLAASYHSRLQSHGIDPDSFSDDGEEEQHDEEDGEEVEQIDTAALQTDGSSGGDSIGGMQVKAMVDD
notes: prey, AD fusion; also called Novel Protein PN23484, heavy meromyosin
B15: OsPN29942 aa 11-182 (other)
chain: VDTSNEIKEIVIDDMEPKVFQAGFLFMYRDNLVGDDELSASSSDCSIFDTLAGKLLAAADRYELPRLRLLCESYLCKHISVNSVATTLALADRHHAMELKSVCLKFAAENLSAVIRTDGFDYLKDNCPALQSEILRTVAGCEEECSSGGKSQSVWGQLSDGGDTSGRRVRPR
notes: prey, AD fusion; also called Novel Protein PN29942, Fragment, zinc finger protein
B16: PN25358 aa 303-472 (other)
chain: VSASEFYSQSAIYVAAAHALKPNYSVYRSALRLVRSMLPLPYLKVGYLIAPPENSAIAPHKEWERSQFVLNHEELQQVNASDQPPSQSPGHVDSGRKLFRIVVADIVSVSACADLTLPPGAGLRIDTIHGPRFLVADNWETIDSWLDAIRLVYTIFARGRSDVLAGIITG
notes: prey, AD fusion; also called Hypothetical Protein AAK39589
B17: OsPN29957 aa 28-214 (other)
chain: EVSFSIRVAKGRGIFEKLGRLAKPRVLALTVKQSTKGEAAKAFLRVLKYSSGAVLEPAKLYKLKHLTKVEVISNDPSGCTFVLGFDNLRSQSVAPPQWTMRNIDDRNRLLFSILTMCKEILSYLPKVVGIDFVELALWAKENTVTLDNQSSTQDGQEKSVTTQTERKVTVTVENDLGSQAKDEEEDM
notes: prey, AD fusion
B18: OsMADS8 aa 109-248 (other)
chain: RTQRNLLGEDLGTLGIKELEQLEKQLDSSLRHIRSTRTQHMLDQLTDLQRREQMLCEANKCLRRKLEESNQLHGQVWEHGATLLGYERQSPHAVQQVPPHGGNGFFHSLEAAAEPTLQIGFTPEQMNNSCVTAFMPTWLP
notes: prey, AD fusion; also called PN20778
B19: OsPN29883 aa 58-175 (other)
chain: YGQLKAAQPFFLLAGPNVIESEEHVLKMAKHIKGITTKLGLPLVFKSSFDKANRTSSKSFRGPGLEEGLKILEKVKATYDIPVVTDVHESHQCEAAGRVADIIQIPAFFCRQTDLLVA
notes: prey, AD fusion; also called Novel Protein PN29883, Fragment
B20: OsORF020300-2233.2 aa 1-190 (other)
chain: MVEVEEVSNKMQAQMRLHPAAAAEEEDADLPLPALFDKASHLHSLASSSSLDQEGIRKGVDLLRRCDEMVSKLGLFSSNETKDDVSTANLKYLLVPYYLGEMTERVAQEDRIPVLKASQDHLKEFISICEALELISEDELELSRQKQPDTMANRRAQKAARFKRQKAAETKLLEIKERKERRRRSLRAAA
notes: as for B4
B21: OsCAA90866 aa 1-126 (other)
chain: MVEVEEVSNKMQVQMRLHPAAAAEEEDADLPLPALFDKASHLHSLASSSSLDQEGIRKGVDLLRRCDEMVSKVGLFSSNETKDDISTANLKYLLVPYYLGEMTERVAQEDRIPVLKASQDHLKEFI
notes: prey, AD fusion; also called PN20311
B22: OsORF020300-2233.2 aa 1-206 (other)
chain: MVEVEEVSNKMQAQMRLHPAAAAEEEDADLPLPALFDKASHLHSLASSSSLDQEGIRKGVDLLRRCDEMVSKLGLFSSNETKDDVSTANLKYLLVPYYLGEMTERVAQEDRIPVLKASQDHLKEFISICEALELISEDELELSRQKQPDTMANRRAQKAARFKRQKAAETKLLEIKERKERRRRSLRAAALSAPIEAGEEDAFEDD
notes: as for B4

Molecular target: T1, OsCHIB1 aa 10-200 (Oryza sativa)
T1 construct: bait, Gal4 DBD fusion; also called PN19651; O. sativa Chitinase, Class III
T1 chain: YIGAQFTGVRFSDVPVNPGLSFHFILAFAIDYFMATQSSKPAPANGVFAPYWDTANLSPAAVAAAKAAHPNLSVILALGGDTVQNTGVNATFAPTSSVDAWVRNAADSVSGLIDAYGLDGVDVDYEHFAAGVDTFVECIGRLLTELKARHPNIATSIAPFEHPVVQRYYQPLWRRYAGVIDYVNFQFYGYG
Assay: Y2H; input trait library
Summary of the method: (§1)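 Myriad Genetics Inc. (Salt Lake City, Utah) supplied the automated, high-throughput yeast two-hybrid assay used to detect protein-protein interactions. A bait clone encoding a defined amino-acid fragment of a rice protein was screened against a rice prey library, either the input trait or the output trait library. To identify the interacting proteins, prey clones were retrieved and their encoding sequences were compared against databases by BLAST.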
B1: binds. AVREPKRYYDPSPAYPAPYHQQTNRDPYAYGNTTTGGYGYAYG (other, not fully specified, prey, AD fusion) [OsPN22020 aa 128-170]: binds. B2: binds. B3: binds.

Each binder was assayed against T2, OsPP2A-2 aa 1-308 (Oryza sativa, UniProt A2XN40 1-307) (assay: Y2H; input trait library).
T2 construct: bait, Gal4 DBD fusion; also called PN20254; O. sativa Serine/Threonine Protein Phosphatase PP2A-2, Catalytic Subunit
T2 sequence (A2XN40 whole entry, the tested form may be a part): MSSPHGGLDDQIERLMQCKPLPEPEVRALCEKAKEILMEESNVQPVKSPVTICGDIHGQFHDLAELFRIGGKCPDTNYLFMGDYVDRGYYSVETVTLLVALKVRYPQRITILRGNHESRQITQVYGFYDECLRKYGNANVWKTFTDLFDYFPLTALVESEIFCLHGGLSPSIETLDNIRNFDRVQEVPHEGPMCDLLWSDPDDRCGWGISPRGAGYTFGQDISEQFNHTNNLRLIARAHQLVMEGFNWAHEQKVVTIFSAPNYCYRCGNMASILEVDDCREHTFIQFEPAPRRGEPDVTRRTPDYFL
Summary of the method: as §1
B4: binds. B5: binds. B6: binds. B7: binds. B8: binds.

These binders were tested against T3, OsE2F1 aa 100-250 (Oryza sativa) (assay: Y2H; output trait library).
T3 construct: bait, Gal4 DBD fusion; also called PN19758; O. sativa E2F Homolog
T3 sequence (chain, as listed by the source): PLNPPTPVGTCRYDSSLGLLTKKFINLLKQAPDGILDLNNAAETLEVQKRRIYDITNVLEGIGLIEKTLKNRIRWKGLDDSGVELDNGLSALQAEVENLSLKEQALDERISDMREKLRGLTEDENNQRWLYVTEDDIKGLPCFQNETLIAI
Summary of the method: as §1
B9: binds. B10: binds. B11: binds. B12: binds.

Each binder was assayed against T4, OsS49462 aa 1-100 (Oryza sativa, UniProt Q01J96 179-278) (assay: Y2H; output trait library).
T4 construct: bait, Gal4 DBD fusion; also called PN20325; O. sativa Cyclin OsS49462, Fragment
T4 sequence: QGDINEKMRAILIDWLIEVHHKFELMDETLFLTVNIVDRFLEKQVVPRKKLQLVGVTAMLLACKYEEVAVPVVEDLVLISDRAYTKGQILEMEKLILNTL
Summary of the method: as §1
B13: binds. B14: binds. B15: binds. B16: binds. B17: binds.

The binders below were run against T5, OsRAP1B aa 30-180 (Oryza sativa, UniProt Q10CQ1 30-180) (assay: Y2H; output trait library).
T5 construct: bait, Gal4 DBD fusion; also called PN20232
T5 sequence: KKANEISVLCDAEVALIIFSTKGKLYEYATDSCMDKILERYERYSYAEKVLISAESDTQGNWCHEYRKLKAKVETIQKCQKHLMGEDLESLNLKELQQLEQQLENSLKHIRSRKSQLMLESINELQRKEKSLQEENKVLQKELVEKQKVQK
Summary of the method: as §1
B18: binds.

Molecular target: T6, OsCAA90866 aa 100-250 (Oryza sativa)
T6 construct: bait, Gal4 DBD fusion; also called PN20311; O. sativa Chilling-Inducible Protein CAA90866
T6 chain: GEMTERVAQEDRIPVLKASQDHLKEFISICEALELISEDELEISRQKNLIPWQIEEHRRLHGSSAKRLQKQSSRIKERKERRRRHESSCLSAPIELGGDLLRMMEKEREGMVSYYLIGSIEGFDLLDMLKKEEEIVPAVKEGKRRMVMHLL
Assay: Y2H; output trait library
B19: binds. B20: binds. B21: binds. B22: binds.

Reference: US20060253917A1 (published 2006)
